Data from the supplement of paper PMC7877785.
± gives the uncertainty stated by the source.

Assay: self-splicing fitness, log relative to wild type (ln ratio); higher = more splicing; Tetrahymena group I intron in knt gene, E. coli kanamycin selection, DiMSum; sequences stand for … in CUCUCU…GGAGGGAAAAGUUAUCAGGCAUGCACCUGGUAGCUAGUCUUUAAACCAAUAGAUUGCAUCGGUUUAAAAGGCAAGACCGUCAAAUUGCGGGAAAGGGGUCAACAGCCGUUCAGUACCAAGUCUCAGGGGAAACUUUGAGAUGGCCUUGCAAAGGGUAUGGUAAUAAGCUGACGGACAUGGUCCUAACCACGCAGCCAAGUCCUAAGUCAACAGAUCUUCUGUUGAUAUGGAUGCAGUUCACAGACUAAAUGUCGGUCGGGGAAGAUGUAUUCUUCUCAUAAGAUAUAGUCGGACCUCUCCUUAAUGGGAGCUAGCGGAUGAAGUGAUGCAACACUGGAGCCGCUGGGAACUAAUUUGUAUGCGAAAGUAUAUUGAUUAGUUUUGGAGUACUCGUGGUCG
How it was run: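 Six replicate transformations of E. coli BL21(DE3) with a pET-22b(+) library were grown overnight at 37°C or 30°C. The library randomised all eight P1ex-region intron nucleotides, the intron lying in the knt kanamycin-resistance gene, and plates were LB agar with or without 25 μg/mL kanamycin plus 100 μg/mL carbenicillin, 50 μM IPTG and 0.2% rhamnose. Pooled colonies were amplicon-sequenced on an Illumina HiSeq 2500, and fitness is the DiMSum error-weighted combination of wild-type-normalised replicate fold changes, kanamycin versus none.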

Sequence	self-splicing fitness (ln) (30 °C)	self-splicing fitness (ln) (37 °C)
UGGCAGCAAUAUUACGCCGA	-0.136 ± 0.092	0.134 ± 0.1
UGGCAGCAAUAUUACGCUGU	-2.97 ± 0.15	-2.18 ± 0.21
UGGCAGCAAUAUUACGGCAG	-0.148 ± 0.12	0.163 ± 0.14
UGGCAGCAAUAUUACGGGCA	-0.0254 ± 0.11	-0.0149 ± 0.12
UGGCAGCAAUAUUACGGGGU	-3.97 ± 0.13	-2.62 ± 0.14
UGGCAGCAAUAUUACGGUUG	-1.46 ± 0.07	-1.04 ± 0.082
UGGCAGCAAUAUUACGUCUG	-1.31 ± 0.082	-0.936 ± 0.11
UGGCAGCAAUAUUACGUGCG	-0.238 ± 0.061	0.163 ± 0.084
UGGCAGCAAUAUUACGUUCA	-0.133 ± 0.084	0.272 ± 0.1
UGGCAGCAAUAUUACGUUUC	-3.1 ± 0.14	-2.77 ± 0.26
UGGGAGCAAUAUUACGAAAC	-1.85 ± 0.22	-1.79 ± 0.49
UGGGAGCAAUAUUACGAACA	-1.33 ± 0.088	-1.02 ± 0.091
UGGGAGCAAUAUUACGAAUG	-1.99 ± 0.21	-2.07 ± 0.33
UGGGAGCAAUAUUACGAGCA	-1.28 ± 0.18	-0.71 ± 0.18
UGGGAGCAAUAUUACGAGCU	-3.52 ± 0.37	-1.69 ± 0.25
UGGGAGCAAUAUUACGAGGA		-3.9 ± 0.47
UGGGAGCAAUAUUACGAGGC	-2.02 ± 0.35	
UGGGAGCAAUAUUACGCGUA	-0.6 ± 0.38	0.46 ± 0.3
UGGGAGCAAUAUUACGCUGC		-1.15 ± 0.28
UGGGAGCAAUAUUACGCUUC	-1.91 ± 0.36	
UGGGAGCAAUAUUACGGAGG	-3.43 ± 0.36	
UGGGAGCAAUAUUACGGGCG	-2.4 ± 0.27	-0.751 ± 0.26
UGGGAGCAAUAUUACGGGCU	-1.78 ± 0.35	

Sequence	self-splicing fitness (ln) (30 °C)	self-splicing fitness (ln) (37 °C)
UGGGAGCAAUAUUACGGUAG	-3.16 ± 0.28	-1.26 ± 0.21
UGGGAGCAAUAUUACGGUCU	-4.3 ± 0.32	-2.09 ± 0.22
UGGGAGCAAUAUUACGGUUG	-2.07 ± 0.22	
UGGGAGCAAUAUUACGUAGA	-2.19 ± 0.26	
UGGGAGCAAUAUUACGUAGU		-1.82 ± 0.28
UGGGAGCAAUAUUACGUGUU	-3.63 ± 0.23	-2.91 ± 0.34
UGGGAGCAAUAUUACGUUCG	-1.34 ± 0.22	-0.604 ± 0.3
UGGGAGCAAUAUUACGUUUC	-3.05 ± 0.23	-1.66 ± 0.4
UGGUAGCAAUAUUACGACAA	-0.344 ± 0.41	-0.278 ± 0.31
UGGUAGCAAUAUUACGACUG	-0.361 ± 0.25	-0.806 ± 0.3
UGGUAGCAAUAUUACGAGCU	-2.09 ± 0.093	-1.02 ± 0.12
UGGUAGCAAUAUUACGCACU	-2.2 ± 0.19	-0.474 ± 0.22
UGGUAGCAAUAUUACGGCCU	-0.807 ± 0.18	-0.532 ± 0.39
UGGUAGCAAUAUUACGGCGU	-1.44 ± 0.12	-0.737 ± 0.12
UGGUAGCAAUAUUACGGGUU	-4.12 ± 0.18	-3.49 ± 0.24
UGGUAGCAAUAUUACGGUGA	-1.36 ± 0.12	-1.34 ± 0.12
UGGUAGCAAUAUUACGGUUG	-0.694 ± 0.082	-0.285 ± 0.11
UGGUAGCAAUAUUACGUAAC	-2.08 ± 0.45	
UGGUAGCAAUAUUACGUAUG	-1.66 ± 0.13	-1.18 ± 0.13
UGGUAGCAAUAUUACGUCAA	-2.31 ± 0.19	-0.773 ± 0.15
UGGUAGCAAUAUUACGUCAU	-2.49 ± 0.23	-2.57 ± 0.36
UGGUAGCAAUAUUACGUGGG	-3.64 ± 0.3	-2.14 ± 0.19
